Measured values reported in article PMC10531723.

Target: PrP-CFP (mouse PrP(23-231) fused to CFP) (mouse) (UniProt P04925)
Assay: FRET or BRET

“PrP-YFP (mouse PrP(23-231) fused to YFP) (from UniProt P04925 23-231) (domain or fragment)” gave an FRET efficiency of 31%.
